Source: patent publication US6746838

Tested on: anti-ras optimised three-finger peptide (F1 +3 Asn) finger 1 helix position +3 S->N (synthetic)
Experiment: ELISA
Settings: apparent Kd; phage-displayed; equal to wild-type Zif268 DBD; Zn

Sequence “GTGGTGGGCGCCGTCGGTGTGGGCAAG (double strand) [EJ (G12V) mutant H-ras site]” has a Kd of 3 nM.
